Measurements reported in the Human Domainome abundance scans (Beltran et al. 2025).
± gives the uncertainty stated by the source.

B1: Probable E3 ubiquitin-protein ligase MID2, residues 191 to 235; numbered along this chain, Q9UJV3 (parent)
chain: RGITCLDHENEKVNMYCVSDDQLICALCKLVGRHRDHQVASLNDR

Variants of: B1
Assay: abundance fitness (aPCA) (normalised: wild type 0, dead -1); higher = more abundant; growth selection in yeast, the domain comes from the species named
Settings: Homo sapiens

Variant	abundance fitness
RGITCLDHENEKVNMYCVSDDQLICALCKLVGCHRDHQVASLNDR [R33C]	-0.28 ± 0.078
RGITCLDHENEKVNMYCVSDDQLICALCKLVGFHRDHQVASLNDR [R33F]	-0.764 ± 0.36
RGITCLDHENEKVNMYCVSDDQLICALCKLVGEHRDHQVASLNDR [R33E]	-0.022 ± 0.093
RGITCLDHENEKVNMYCVSDDQLICALCRLVGRHRDHQVASLNDR [K29R]	0.07 ± 0.06
RGITCLDHENEKVNMYCVSDDQLICALCYLVGRHRDHQVASLNDR [K29Y]	-0.079 ± 0.14
RGITCLDHENEKVNMYCVSDDQLICALCQLVGRHRDHQVASLNDR [K29Q]	-0.016 ± 0.063
RGITCLDHENEKVNMYCVSDDQLICALCSLVGRHRDHQVASLNDR [K29S]	0.059 ± 0.06
RGITCLDHENEKVNMYCVSDDQLICALCVLVGRHRDHQVASLNDR [K29V]	-0.149 ± 0.089
RGITCLDHENEKVNMYCVSDDQLICALCWLVGRHRDHQVASLNDR [K29W]	0.018 ± 0.061
RGITCLDHENEKVNMYCVSDDQLICALCKLNGRHRDHQVASLNDR [V31N]	0.184 ± 0.12
RGITCLDHENEKVNMYCVSDDQLICALCKLFGRHRDHQVASLNDR [V31F]	-0.046 ± 0.17
RGITCLDHENEKVNMYCVSDDQLICALCKLSGRHRDHQVASLNDR [V31S]	0.06 ± 0.05
RGITCLDHENEKVNMYCVSDDQLICALCKLWGRHRDHQVASLNDR [V31W]	-0.428 ± 0.084
RGITCLDHENEKVNMYCVSDDQLICALCKLKGRHRDHQVASLNDR [V31K]	0.131 ± 0.09
RGITCLDHENEKVNMYCVSDDQLICALCKLLGRHRDHQVASLNDR [V31L]	-0.122 ± 0.058
RGITCLDHENEKVNMYCVSDDQLICALCKLEGRHRDHQVASLNDR [V31E]	0.149 ± 0.062
RGITCLDHENEKVNMYCVSDDQLICALCKLTGRHRDHQVASLNDR [V31T]	0.131 ± 0.086
RGITCLDHENEKVNMYCVSDDQLICALCKLMGRHRDHQVASLNDR [V31M]	-0.104 ± 0.079
RGITCLDHENEKVNMYCVSDDQLICALCKLPGRHRDHQVASLNDR [V31P]	0.014 ± 0.057

Variant	abundance fitness
RGITCLDHENEKVNMYCVSDDQLICALCKLQGRHRDHQVASLNDR [V31Q]	0.152 ± 0.062
RGITCLDHENEKVNMYCVSDDQLICALCKLYGRHRDHQVASLNDR [V31Y]	-0.117 ± 0.084
RGITCLDHENEKVNMYCVSDDQLICALCKLGGRHRDHQVASLNDR [V31G]	0.107 ± 0.052
RGITCLDHENEKVNMYCVSDDQLICALCKLIGRHRDHQVASLNDR [V31I]	-0.091 ± 0.075
RGITCLDHENEKVNMYCVSDDQLICALCKLDGRHRDHQVASLNDR [V31D]	-0.022 ± 0.098
RGITCLDHENEKVNMYCVSDDQLICALCKLHGRHRDHQVASLNDR [V31H]	0.108 ± 0.1
RGITCLDHENEKVNMYCVSDDQLICALCKHVGRHRDHQVASLNDR [L30H]	-0.012 ± 0.09
RGITCLDHENEKVNMYCVSDDQLICALCKKVGRHRDHQVASLNDR [L30K]	0.348 ± 0.11
RGITCLDHENEKVNMYCVSDDQLICALCKSVGRHRDHQVASLNDR [L30S]	0.189 ± 0.073
RGITCLDHENEKVNMYCVSDDQLICALCKCVGRHRDHQVASLNDR [L30C]	0.026 ± 0.075
RGITCLDHENEKVNMYCVSDDQLICALCKPVGRHRDHQVASLNDR [L30P]	-0.136 ± 0.076
RGITCLDHENEKVNMYCVSDDQLICALCKWVGRHRDHQVASLNDR [L30W]	-0.095 ± 0.065
RGITCLDHENEKVNMYCVSDDQLICALCKGVGRHRDHQVASLNDR [L30G]	0.13 ± 0.06
RGITCLDHENEKVNMYCVSDDQLICALCKFVGRHRDHQVASLNDR [L30F]	-0.022 ± 0.24
RGITCLDHENEKVNMYCVSDDQLICALCKQVGRHRDHQVASLNDR [L30Q]	0.109 ± 0.06
RGITCLDHENEKVNMYCVSDDQLICALCKNVGRHRDHQVASLNDR [L30N]	0.078 ± 0.13
RGITCLDHENEKVNMYCVSDDQLICALCKYVGRHRDHQVASLNDR [L30Y]	-0.071 ± 0.1
RGITCLDHENEKVNMYCVSDDQLICALCKTVGRHRDHQVASLNDR [L30T]	0.089 ± 0.064
RGITCLDHENEKVNMYCVSDDQLICALCKMVGRHRDHQVASLNDR [L30M]	0.003 ± 0.084

Variant	abundance fitness
RGITCLDHENEKVNMYCVSDDQLICALCKDVGRHRDHQVASLNDR [L30D]	0.183 ± 0.072
RGITCLDHENEKVNMYCVSDDQLICALCKAVGRHRDHQVASLNDR [L30A]	0.159 ± 0.057
RGITCLDHENEKVNMYCVSDDQLICALCKEVGRHRDHQVASLNDR [L30E]	0.096 ± 0.059
RGITCLDHENEKVNMYCVSDDQLICALCKVVGRHRDHQVASLNDR [L30V]	0.003 ± 0.058
RGITCLDHENEKVNMYCVSDDQLICALCKLVMRHRDHQVASLNDR [G32M]	-0.899 ± 0.17
RGITCLDHENEKVNMYCVSDDQLICALCKLVARHRDHQVASLNDR [G32A]	-0.518 ± 0.07
RGITCLDHENEKVNMYCVSDDQLICALCKLVSRHRDHQVASLNDR [G32S]	-0.408 ± 0.07
RGITCLDHENEKVNMYCVSDDQLICALCKLVTRHRDHQVASLNDR [G32T]	-0.339 ± 0.091
RGITCLDHENEKVNMYCVSDDQLICALCKLVQRHRDHQVASLNDR [G32Q]	-0.472 ± 0.081
RGITCLDHENEKVNMYCVSDDQLICALCKLVRRHRDHQVASLNDR [G32R]	-0.537 ± 0.092
RGITCLDHENEKVNMYCVSDDQLICALCKLVDRHRDHQVASLNDR [G32D]	-0.337 ± 0.23
RGITCLDHENEKVNMYCVSDDQLICALCKLVERHRDHQVASLNDR [G32E]	-0.248 ± 0.1
RGITCLDHENEKVNMYCVSDDQLICALCKLVVRHRDHQVASLNDR [G32V]	-0.474 ± 0.067
RGITCLDHENEKVNMYCVSDDQLICALCKLVLRHRDHQVASLNDR [G32L]	-0.684 ± 0.078
RGITCLDHENEKVNMYCVSDDQLICALCKLVCRHRDHQVASLNDR [G32C]	-0.589 ± 0.12
RGITCLDHENEKVNMYCVSDDQLICALCKLVHRHRDHQVASLNDR [G32H]	-0.185 ± 0.08
RGITCLDHENEKVNMYCVSDDQLICALCKLVKRHRDHQVASLNDR [G32K]	-0.316 ± 0.088
RGITCLDHENEKVNMYCVSDDQLICALCKLVWRHRDHQVASLNDR [G32W]	-0.954 ± 0.16
RGITCLDHENEKVNMYCVSDDQLICALCKLVIRHRDHQVASLNDR [G32I]	-0.459 ± 0.23
